Measured values: patent US20220017616A1 (Amgen, published 2022)
Numbering of substitutions follows the chain as printed. Values joined by “and” are separate entries in the source; they are usually repeats but may differ in a detail not shown here. Identical values can stand only once.

Experiments:
[1] = biological target: T1, human CD112R expressed on CHO K1 cells (pMSCV_FLAG_human CD112R (N81D)(41-326)_IRES_EGFP) (human, UniProt Q6DKI7 41-326); test: flow cytometry on CHO K1 cells expressing human CD112R
T1 construct: also called huCD112R; human CD112R expressed on CHO cells; not shown: FLAG tag named in the vector
T1 sequence: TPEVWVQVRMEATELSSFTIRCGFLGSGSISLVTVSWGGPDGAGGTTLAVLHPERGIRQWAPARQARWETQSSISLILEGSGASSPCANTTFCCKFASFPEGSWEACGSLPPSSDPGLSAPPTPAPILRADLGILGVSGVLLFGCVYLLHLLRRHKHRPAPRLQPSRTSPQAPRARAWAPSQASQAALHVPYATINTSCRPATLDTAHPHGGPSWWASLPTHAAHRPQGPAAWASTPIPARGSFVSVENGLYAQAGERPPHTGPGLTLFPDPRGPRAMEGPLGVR

[2] = biological target: T2, cynomolgus TIGIT (cynomolgus monkey); test: flow cytometry on activated primary cyno PBMCs, fold over isotype control
T2 construct: Cell-surface form; also called cyno TIGIT
T2 sequence (chain, as listed by the source): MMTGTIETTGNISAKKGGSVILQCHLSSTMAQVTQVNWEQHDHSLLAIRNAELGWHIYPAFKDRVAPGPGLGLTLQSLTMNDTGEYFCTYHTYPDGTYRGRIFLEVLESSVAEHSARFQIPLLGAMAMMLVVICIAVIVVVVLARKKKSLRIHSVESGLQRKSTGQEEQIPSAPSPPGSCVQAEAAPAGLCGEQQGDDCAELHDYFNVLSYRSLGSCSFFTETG
Protocol: (§1) The binding of hybridoma supernatants to TIGIT expressed by primary human and cynomolgus monkey cells were tested by flow cytometry. For human primary cell binding assay, purified human T cells (Biological Specialty Corp.) were thawed and suspended at a concentration of 2.5×10⁶ cells/mL. […] After 72 hours, cells were removed, washed and suspended at a concentration of 0.5×10⁶ cells/mL with 10 ng/mL of IL-2 (Pepro Tech). Cells were then incubated for another 48 to 72 hours at 37° C./5% CO₂. For cynomolgus primary cell binding assay, cynomolgus PBMCs (SNBL) were thawed and suspended in a concentration between 4×10⁶ and 5×10⁶ cells/mL. […] After 72 hours, cells were removed, washed and suspended at a concentration of 0.5×10E6 cells/mL with 20 ng/mL of IL-2 (Pepro Tech). Cells were then incubated for another 48 to 72 hours at 37° C./5% CO₂. After the final incubation, cells were prepared for flow cytometry by incubation with normalized hybridoma supernatants, positive control antibodies and isotype control antibodies at 1 μg/mL final concentration. […] Cells were then run on BD FACSCanto II flow cytometer to detect anti-TIGIT antibody binding.

[3] = biological target: T3, human TIGIT (human, UniProt Q495A1 22-244); test: flow cytometry on CHO-S cells expressing human TIGIT, competitor CD112-Fc-Alexa 647, at 1 ug/mL
T3 construct: Cell-surface form; also called huTIGIT
T3 sequence: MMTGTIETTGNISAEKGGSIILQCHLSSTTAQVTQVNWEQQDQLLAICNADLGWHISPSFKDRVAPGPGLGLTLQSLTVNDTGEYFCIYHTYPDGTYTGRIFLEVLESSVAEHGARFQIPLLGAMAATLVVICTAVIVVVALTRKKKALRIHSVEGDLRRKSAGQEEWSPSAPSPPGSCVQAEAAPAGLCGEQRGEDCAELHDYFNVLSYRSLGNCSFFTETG
Protocol: (§2) TIGIT-binding hybridoma supernatants were then tested for their ability to block TIGIT from binding ligand. […] The 7-AAD cell viability stain was then added and the cells incubated for a further 15 minutes at 4° C., washed twice and resuspended in FACS buffer. Samples were analyzed using a BD Accuri™ Flow Cytometer and an Intellicyt HyperCyt autoSampler.

[4] = biological target: T3, human TIGIT; test: flow cytometry, 1 µg/mL on activated primary human T cells, fold over isotype control
Protocol: as §1

[5] = biological target: T4, cynoTIGIT (PL40461) (cynomolgus monkey); test: Octet, antibody on anti-huIgG Fc capture tips, cynoTIGIT as analyte
T4 construct: Soluble protein; also called Cyno TIGIT (Octet analyte)
T4 sequence (chain, as listed by the source limits assumed): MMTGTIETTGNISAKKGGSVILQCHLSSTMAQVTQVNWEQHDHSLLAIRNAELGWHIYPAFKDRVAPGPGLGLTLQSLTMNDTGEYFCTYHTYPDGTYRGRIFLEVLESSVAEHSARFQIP
Protocol: (§3) In the case of cynoTIGIT, association was monitored for 5 min and dissociation for 5 min. […] The limit of detection of dissociation is 4e-5 based on a minimum of 5% dissociation over 20 minutes.

[6] = biological target: T3, human TIGIT; test: cell-based or functional assay
[7] = biological target: T3, human TIGIT; test: flow cytometry on CHO-S cells expressing human TIGIT, competitor huCD155-Fc-Alexa 647, at 1.7 µg/mL
Protocol: as §2

[8] = biological target: T5, huTIGIT (PL44403) (human, UniProt Q495A1 22-141); test: Octet, antibody on anti-huIgG Fc capture tips, huTIGIT as analyte
T5 construct: Soluble protein; also called Human TIGIT (Octet analyte, mono-Fc tag)
T5 sequence: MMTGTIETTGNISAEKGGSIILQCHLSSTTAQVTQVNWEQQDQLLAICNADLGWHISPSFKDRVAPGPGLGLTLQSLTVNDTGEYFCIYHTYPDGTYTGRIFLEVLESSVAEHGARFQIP
Protocol: as §3

[9] = biological target: T3, human TIGIT; test: cell-based or functional assay; remark: listed apart in the source
[10] = biological target: T2, cynomolgus TIGIT; test: flow cytometry, 1 µg/mL on activated primary cyno PBMCs, fold over isotype control
Protocol: as §1

[11] = biological target: T6, human CD155 on cells (human, UniProt P15151 21-417); test: flow cytometry, CD226-Fc at 10 ug/mL on mock-transfected 293T cells
T6 construct: whole, on cells; also called huCD155
T6 sequence (looked up): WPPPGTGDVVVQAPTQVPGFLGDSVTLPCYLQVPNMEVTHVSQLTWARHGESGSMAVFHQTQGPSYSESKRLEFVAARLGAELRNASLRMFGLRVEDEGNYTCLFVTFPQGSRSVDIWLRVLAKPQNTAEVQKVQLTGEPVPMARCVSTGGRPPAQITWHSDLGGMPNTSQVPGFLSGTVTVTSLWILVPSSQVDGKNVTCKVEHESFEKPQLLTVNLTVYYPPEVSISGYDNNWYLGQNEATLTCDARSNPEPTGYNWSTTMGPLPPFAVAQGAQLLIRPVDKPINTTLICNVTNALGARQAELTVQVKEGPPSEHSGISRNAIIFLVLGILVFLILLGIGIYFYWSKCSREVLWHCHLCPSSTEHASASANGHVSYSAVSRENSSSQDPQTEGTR
Protocol: In the presence of tool TIGIT antibodies, TIGIT expressed by TIGIT-293 cells is bound by tool antibodies and is blocked from binding to CD155, thereby allowing CD226 to interact with CD155. […] Cells were washed 1× with FACS Buffer and resuspended in FACS buffer. Samples were analyzed using a BD Accuri™ Flow Cytometer and an Intellicyt HyperCyt autoSampler.

B1: human CD112-Fc (Fc fusion, UniProt Q92692 32-360, looked up, not shown: a dimerising Fc or GST)
chain: QDVRVQVLPEVRGQLGGTVELPCHLLPPVPGLYISLVTWQRPDAPANHQNVAAFHPKMGPSFPSPKPGSERLSFVSAKQSTGQDTEAELQDATLALHGLTVEDEGNYTCEFATFPKGSVRGMTWLRVIAKPKNQAEAQKVTFSQDPTTVALCISKEGRPPARISWLSSLDWEAKETQVSGTLAGTVTVTSRFTLVPSGRADGVTVTCKVEHESFEEPALIPVTLSVRYPPEVSISGYDDNWYLGRTDATLSCDVRSNPEPTGYDWSTTSGTFPTSAVAQGSQLVIHAVDSLFNTTFVCTVTNAVGMGRAEQVIFVRETPNTAGAGATGG
notes: treated as the same reagent; also called Human CD112 Ligand; CD112 ligand
**Q.** B1 was tested. Which EC50 [1] did it give?
**A.** The EC50 was 1.61 µg/mL and 12.8 nM.

B2: 11A3 (antibody, V domains shown)
VH: QVQLVQSGAEVKKPGASVKVSCKASGYTFTSYYIHWVRQAPGQGLEWMGIINPSGGRTSYAQMFQGRVTLTRDTSTNTVYMELSSLRSEDTAVFYCAKDREEQWPVGGFDYWGQGTLVTVSS
VL: DIQMTQSPSSLSASVGDRVTITCRASQNIRRYLNWYQQKPGKAPELLIYSASNLQNGVPSRFSGSGSGTDFTLTISSLQPEDFATYYCQQSYIIPPTFGQGTKVEIRR
notes: Fully human XenoMouse antibody, tested as hybridoma supernatant or purified mAb
**Q.** What does the source list for B2?
**A.** binding result [2]: no binding (tested: 1 µg/mL); % inhibition [3]: 100%; FACS Geomean Fold [4]: 11.6 fold; binding result [5]: no binding; Potency [nM], Jurkat human TIGIT/IL-2-luciferase RGA, n = 1 [6]: 1.9 nM; Potency [nM], Jurkat human TIGIT/IL-2-luciferase RGA, n = 2 [6]: 2.7 nM; % inhibition [7]: 100%; Kd [8]: < 0.1 nM

B3: 28B8 (antibody, V domains shown)
VH: QVQLQESGPGLVKPSETLFLTCTVSGGSVTNYYWSWIRQPAGKGLEWIGRIYTSGSTYYNPSLKSRVTMSLDTSKNQFSLRLSSVTAADTAVYYCAREGFTMVRGVMGAFDIWGQGTMVTVSS
VL: B2 VL with N28S, K39I, E45K, L46F, S50D, N53S, N56S, I93S, I94T, R107K
notes: as for B2
**Q.** Does B3 bind [2]?
**A.** Result: no binding (tested: 1 µg/mL)

**Q.** And the “% inhibition” value [3]?
**A.** The value was 97%.

**Q.** And the “FACS Geomean Fold” value [4]?
**A.** The value was 14.4 fold.

**Q.** Does B3 bind [5]?
**A.** Result: no binding

**Q.** And the “Potency [nM], Jurkat human TIGIT/IL-2-luciferase RGA, n = 1” value [6]?
**A.** Its value is 4.3 nM.

**Q.** What about the “Potency [nM], Jurkat human TIGIT/IL-2-luciferase RGA, n = 2” value [6] of the same binder?
**A.** The value was 2.1 nM.

**Q.** And the “% inhibition” value [7]?
**A.** The value was 100%.

**Q.** And the “activity in the primary CD8 memory T-cell assay (IFN-γ release, CHO-K1-CD155+ cells)” value [9]?
**A.** The value was 160 pM.

**Q.** And the Kd [8]?
**A.** Its Kd is < 0.1 nM.

B4: 43B7 (antibody, V domains shown)
VH: QVQLQESGPGLVKPSQTLSLTCTVSGGSISSGGYYWSWIRQHPGKGLEWIGYIYYRGGTYYNPSLRSRVTMSVDTSKNQFSLMLSSVTAADTAVYYCARTIFGVIILDNWGQGTPVTVSS
VL: DIQMTQSPSSLSASVGDRVTITCRSSQSISSYLNWYQQKPGRAPKLLIHAASSLQSGVPSRFSGSGSGTDFTLTISSLQPEDFASYCCQQSYTTPPTFGGGTKVEIKR
notes: as for B2
**Q.** With B4 as the binder, how does the “% inhibition” value [3] read?
**A.** Its value is 100%.

**Q.** And the “FACS Geomean Fold” value [10]?
**A.** Its value is 4.7 fold.

**Q.** And the “FACS Geomean Fold” value [4]?
**A.** The value was 13.7 fold.

**Q.** What about the Kd [5] of the same binder?
**A.** Its Kd is 13 nM.

**Q.** What about the “Potency [nM], Jurkat human TIGIT/IL-2-luciferase RGA, n = 1” value [6] of the same binder?
**A.** Its value is 3.4 nM.

**Q.** And the “Potency [nM], Jurkat human TIGIT/IL-2-luciferase RGA, n = 2” value [6]?
**A.** Its value is 2.5 nM.

**Q.** And the “% inhibition” value [7]?
**A.** The value was 100%.

**Q.** And the “activity in the primary CD8 memory T-cell assay (IFN-γ release, CHO-K1-CD155+ cells)” value [9]?
**A.** The value was 90 pM.

**Q.** What about the Kd [8] of the same binder?
**A.** The Kd was < 0.1 nM.

B5: human CD226-Fc (Fc fusion, UniProt Q15762 19-247, looked up, not shown: a dimerising Fc or GST)
chain: EEVLWHTSVPFAENMSLECVYPSMGILTQVEWFKIGTQQDSIAIFSPTHGMVIRKPYAERVYFLNSTMASNNMTLFFRNASEDDVGYYSCSLYTYPQGTWQKVIQVVQSDSFEAAVPSNSHIVSEPGKNVTLTCQPQMTWPVQAVRWEKIQPRQIDLLTYCNLVHGRNFTSKFPRQIVSNCSHGRWSVIVIPDVTVSDSGLYRCYLQASAGENETFVMRLTVAEGKTDN
notes: also called huCD226; CD226-Fc (R&D, 666-DN)
**Q.** Does B5 bind [11]?
**A.** Result: binds
